Test [1] has as its target T1, SARS CoV-2 spike trimer protein from the parental Wuhan-Hu-1 isolate (recombinant stabilized extracellular domain) (SARS-CoV-2 (Wuhan-Hu-1)). Nature of the test: ELISA on coated recombinant stabilized spike protein, panel WT, OD 450. The conditions noted are these: remark: other sources report otherwise.
In test [2] the target is T1, SARS CoV-2 spike trimer protein from …. The test can be described thus: ELISA, spike coated, chimeric IgG1. The following applies: remark: other sources report otherwise. For orientation: An ELISA detects its analyte on a solid surface through an enzyme-linked reagent.
Test [3] addresses SARS-CoV-2 (antigen of the ELISA of FIG. 5E). Nature of the test: ELISA on SARS-CoV-2 antigen (spike or RBD not stated), OD 450.
In test [4] the target is T1, SARS CoV-2 spike trimer protein from …. The test can be described thus: ELISA on coated spike protein, anti-human Fc-HRP, OD450. The conditions noted are these: remark: other sources report otherwise.

B1: SKM chimeric bovine-human IgG1 (ultralong CDR3) (antibody)
VH: QVQLRESGPSLVKPSQTLSLTCTASGFSLSDKAVGWVRQAPGKALEWLGSIDTGGNTGYNPGLKSRLSITKDNSKSQVSLSVSSVTTEDSATYYCTTVHQETLRSCPDGYIDNSGCTADWGCAALDCWRRRFGYHSTDPSHYTGATYIYTYSLHIDAWGQGLLVTVSS
VL: QAVLNQPSSVSGSLGQRVSITCSGSSSNVGNGYVSWYQLIPGSAPRTLIYGDTSRASGVPDRFSGSRSGNTATLTISSLQAEDEADYFCASAEDSSSNAVFGSGTTLTVL
For the molecule B1, the EC50 (read off the curve) – broadly, the concentration that produces a half-maximal response – in test [1] turned out to be 0.2 nM. The EC50 (usually the concentration at which the effect is half-maximal) in test [2] amounted to 0.19 nM.

B2: SKD chimeric bovine-human IgG1 (ultralong CDR3) (antibody)
VH: QVQLRESGPSLVKPSQTLSLTCTASGFSLSDKAVGWVRQAPGKALEWLGSIDTGGNTGYNPGLKSRLSITKDNSKSQVSLSVSSVTTEDSATYYCTTVHQRTSEKRSCPGGSSRRYPSGASCDVSGGACACYVSNCRGVLCPTLNEIVAYTYEWHVDAWGQGLLVTVSS
VL: B1 VL
For the molecule B2, the EC50 in test [2] came out at 0.16 nM.

B3: R2D9 chimeric bovine-human IgG1 (ultralong CDR3) (antibody)
VH: QVQLRESGPSLVKPSQTLSLTCTASGFSLSDKAIGWVRQAPGKALEWLGSIDTRGNTGYNPGLKSRLSITKDSSKSQVSLSVNSVTTEDSATYLCAIVQQITHKTCPNGYNWFDRCCSWDGTCGDGCCSNRAWPSGNGRADSSIGETYGYEFHVAAWGQGLLVTVSS
VL: B1 VL
In test [3], B3 came in with an EC50 (read off the curve) of 0.03 nM.

B4: R4C1 chimeric bovine-human IgG1 (ultralong CDR3) (antibody)
VH: QVQLRESGPSLVKPSQTLSLTCTASGFSLSDKAVGWVRQAPGKPLEWLGSIDTAENTGYNPGLKSRLSITKDNSKSQVSLSVSSVTTEDSATYYCATVHQKTRKEKNCPDGYIYSSNTASGYDCGVWICRRVGSAFCSRTGDYTSPSEFDIYEFYVEGWGQGLLVTVSS
VL: B1 VL
Consider B4, for which the results for the EC50 (read off the curve) in test [4] and in test [1] were 0.03 nM and 0.3 nM, respectively. Further, the EC50 in test [2] worked out at 0.2 nM.

For the origin of these results see patent publication US20260184766A1.
